The values that follow come from PMC10399917 (Journal of Molecular Cell Biology, 2023).

In experiment [1] the target is His-TMPRSS2 (transmembrane serine protease 2 with N-terminal 6x histidines) (UniProt O15393). Nature of the experiment: […].
Experiment [2] addresses VF-TMPRSS2 (transmembrane serine protease 2 with N-terminal Venus-FLAG) (UniProt O15393). Nature of the experiment: […].

Chain of His-TMPRSS2 (transmembrane serine protease 2 with N-terminal 6x histidines) (O15393 whole entry): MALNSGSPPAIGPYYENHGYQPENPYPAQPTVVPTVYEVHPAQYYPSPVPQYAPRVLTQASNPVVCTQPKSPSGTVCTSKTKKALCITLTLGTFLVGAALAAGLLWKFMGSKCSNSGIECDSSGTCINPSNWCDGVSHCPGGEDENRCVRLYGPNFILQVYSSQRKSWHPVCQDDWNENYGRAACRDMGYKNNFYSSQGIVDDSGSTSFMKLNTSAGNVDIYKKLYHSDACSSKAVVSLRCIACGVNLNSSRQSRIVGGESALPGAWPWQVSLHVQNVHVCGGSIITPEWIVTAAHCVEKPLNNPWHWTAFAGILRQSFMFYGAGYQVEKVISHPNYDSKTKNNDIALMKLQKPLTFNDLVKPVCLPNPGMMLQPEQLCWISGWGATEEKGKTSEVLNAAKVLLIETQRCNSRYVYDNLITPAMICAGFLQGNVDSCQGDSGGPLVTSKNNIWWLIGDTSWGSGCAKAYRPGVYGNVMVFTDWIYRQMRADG
Chain of VF-TMPRSS2 (transmembrane serine protease 2 with N-terminal Venus-FLAG) (O15393 whole entry): as above

“SPIKE-FLAG (SARS-CoV-2 SPIKE glycoprotein with C-terminal FLAG) (from UniProt P0DTC2 14-1273) (natural protein)”: the S/B ratio (TR-FRET signal-to-background) in experiment [1] was greater than 23.
The same measure, in the same setting: under “SPIKE-VF (SARS-CoV-2 SPIKE glycoprotein with C-terminal Venus-FLAG) (from UniProt P0DTC2 14-1273) (natural protein)” stands 23.
For “SPIKE-His (SARS-CoV-2 SPIKE glycoprotein with C-terminal 6x histidines) (from UniProt P0DTC2 14-1273) (natural protein)”, in experiment [2], the S/B ratio (TR-FRET signal-to-background) is greater than 23.
